Consider 17 sequences from patent US20190241895.

This data set relates to secretory immunoglobulin A (sIgA) (Homo sapiens). Put plainly: SPR. In general terms: Surface plasmon resonance follows binding to a sensor surface in real time, without labels.
[1] abbreviates: MK4 (adenine-residue-modified dA) at A after the 5' primer region GGTTTGGACGCAATCTCCCTAATC, 3' poly(dT)20 added for SPR, SPR buffer 1 mM MgCl2 pH 7.4.
Where [2] appears, read: KS9 (adenine-residue-modified T) at the T after GCAATCTCCCTAATC, 3' poly(dA)20 added for SPR, SPR buffer 1 mM MgCl2 pH 7.4.
Where [3] appears, read: NG7 (guanine-residue-modified T) at underlined T i.e. T after GCAATCTCCCTAATC, 3' poly(dA)20 added for SPR, SPR buffer 1 mM MgCl2 pH 7.4.
[4] abbreviates: KS9 (adenine-residue-modified T) at T after the 5' primer region GGTTTGGACGCAATCTCCCTAATC, 3' poly(dA)20 added for SPR, SPR buffer 1 mM MgCl2 pH 7.4.
The mark [5] stands for this setting: NG7 (guanine-residue-modified T) at T after the 5' primer region GGTTTGGACGCAATCTCCCTAATC, 3' poly(dA)20 added for SPR, SPR buffer 1 mM MgCl2 pH 7.4.

By Kd is commonly meant a measure of binding affinity in units of concentration. Low readings indicate a tighter complex, high ones a looser complex. “GGTTTGGACGCAATCTCCCTAATCAGATGATATCGAGATGCGAAGCGACCGCATGAAACTACAATGGGCGGGCTTATC [MK4 aptamer SEQ 2]” came in with a Kd under setting [1] of 7.6 nM.
“GCAATCTCCCTAATCAAAGATATGCTAAGATAGATAGTTTGGCTTG [KS9 aptamer SEQ 19]” gave a Kd under setting [2] of 8 nM.
Take “GCAATCTCCCTAATCTGCTGATGTTTGTATTTCAAATTAGC [NG7 aptamer SEQ 15]”: under setting [3], the Kd came to 2.59 nM.
“GCAATCTCCCTAATCTGCTGATGTTTGTATTTCAAATTAGCCGCAG [NG7 aptamer SEQ 14]” returned a Kd under setting [3] of 10 nM.
For the sequence “GCAATCTCCCTAATCGTATATCAAGCAGATGTGTTCACTTGGGGAG [KS9 aptamer SEQ 17]”, the Kd under setting [2] was 12.9 nM.
With “GGTTTGGACGCAATCTCCCTAATCACCTGTACTGGTTATTATGCCTGCCAACATGAAACTACAATGGGCGGGCTTATC [KS9 aptamer SEQ 10]”, the Kd under setting [4] was determined as 30.2 nM.
Take “GGTTTGGACGCAATCTCCCTAATCGATCTAGATGGTCTCGGGTATGGCTAGATAGAAACTACAATGGGCGGGCTTATC [MK4 aptamer SEQ 4]”: the Kd under setting [1] stood at 17.4 nM.
“GGTTTGGACGCAATCTCCCTAATCTACTACGATATCCAGATGGGAAGTGACCGTGAAACTACAATGGGCGGGCTTATC [MK4 aptamer SEQ 1]”: under “MK4 (adenine-residue-modified dA) at A after the 5' primer region GGTTTGGACGCAATCTCCCTAATC, 3' poly(dT)20 added for SPR, 40 mM HEPES, 125 mM NaCl, 5 mM KCl, 1 mM MgCl2, 0.01% Tween 20, pH 7.4”, the Kd was determined as 8.6 nM.
“GGTTTGGACGCAATCTCCCTAATCAAGCCACGGAGAGTCCGAGGTGACCATTAAGCAGGAAACTACAATGGGCGGGCTTA [MK4 aptamer SEQ 3]”: the Kd under setting [1] is 7.6 nM.
Sequence “GGTTTGGACGCAATCTCCCTAATCTGCTGATGTTTGTATTTCAAATTAGCCGCAGAAACTACAATGGGCGGGCTTATC [NG7 aptamer SEQ 5]” came in with a Kd under setting [5] of 11.8 nM.
The sequence “GCAATCTCCCTAATCTTTATACGTATGGACTTAGGCTTTGTTATAGAAAC [KS9 aptamer SEQ 21]” returned a Kd under setting [2] of 2.1 nM.
With “GGTTTGGACGCAATCTCCCTAATCAGACAATATTAGAGTGTTACCACCTGTGATGAAACTACAATGGGCGGGCTTATC [NG7 aptamer SEQ 7]”, the Kd under setting [5] was determined as 37.7 nM.
Take “GGTTTGGACGCAATCTCCCTAATCTAAATAGATTTCACAGTGGATCCTTCAGAGGAAACTACAATGGGCGGGCTTATC [NG7 aptamer SEQ 6]”: under setting [5], the Kd was found to be 11.6 nM.
Take “GGTTTGGACGCAATCTCCCTAATCAAAGATATGCTAAGATAGATAGTTTGGCTTGAAACTACAATGGGCGGGCTTATC [KS9 aptamer SEQ 9]”: the Kd under setting [4] was determined as 4.8 nM.
On to “GGTTTGGACGCAATCTCCCTAATCGTATATCAAGCAGATGTGTTCACTTGGGGAGAAACTACAATGGGCGGGCTTATC [KS9 aptamer SEQ 8]”, for which the Kd under setting [4] was found to be 10 nM.
The same measure, in the same setting: under “GGTTTGGACGCAATCTCCCTAATCCTATCTGTTTTATCAATTGTAGCAAGTTATGAAACTACAATGGGCGGGCTTATC [KS9 aptamer SEQ 12]” stands 9 nM; under “GGTTTGGACGCAATCTCCCTAATCTTTATACGTATGGACTTAGGCTTTGTTATAGAAACTACAATGGGCGGGCTTATC [KS9 aptamer SEQ 11]”, 1.3 nM.
